This data set in a line: soluble on expression in E. coli; label from the status in PepcDB or PDB records.
On to “MLRLFKIQKAPLSQFSKASNEIVKDFIEKMEKAAGSGDKVKFSDCFTEDFQFFACSFTANKAQFVEKHLTNPNPEPVIPKYSNFDENDSKIKFTVSRRVGPEVNIVDFDLLRENDGPWRLQWGKVTTCP”, for which the “soluble on expression in E. coli” value is given as “not soluble”. As for “MSETKERLCIYADFPYEFAVCAPRTDCPKREQCLRASAYDGVLARGLQKITVINPLIPTSEQGCKAFADNTPVLFAHGITHLYDELPHHAVQSLKHRLLTYFGKTTYYRIYRKERYITIQEQDYIRDSFVRAGFSSDLIRYDAMVYMYELQSAMVKSD”, the entry is “not soluble”; as for “MSLKISVIIPIYNAENYIEKAFSSLKNQTLAQNEFEILCIDDKSTDNSLGKLKQLSKIHKNMRIINLHKNSGGPMIPRNKGIKEAKGKYIIFLDNDDYLGEEALERLFIQAEKNQSEVIFGKYVGINGRGVPQSQFKKGNRNEADILADNLVYTLAPHKMFQTAFLKTKKIYFDPNILIGEDQYFVMKAYVNAKVITVLADYDYYYVVSRGDENLSIKESKMDPREICKVVPAVVKEIEASPLHPTYKKTLIRAYIQRYFNDYITGNYNLDYKNMSERQKTFVQVMKDTIVCHLDEKMKNELPTKTRFMIDIIAENNPEKLIDVRMQMENFSKNQVVKVENGYIKGRFRKMRPQLAYDDVYDINHLNSSKVQLHSVTLQNNNYLLDISLEQSLLTRFQTALRLCLKERDGNLEIWISPLKMLSTERGIYAVDSTLFNHTCIWDLFIESEINGFKNRKRVGKDRDFEEIVSSNNTPLLIQNNSYQIKAYFTTPFSNLSFQIISEEGHHHHHH”, “soluble”; as for “MANFIDRRLNAKGKSTVNRQRFINRYKQQIKKAVSDAVTRRSVTDVDKGEKISIPTRDISEPMFHQGKGGVRDRVHPGNDQFTRGDKIDRPQGGSGGGAGKGDASDSGEGNDDFVFEISKDEYLELLFEDLELPNLQKNRLNKLVEYQIYRAGFTNDGVPANINIVRSLRSSLARRIAMSASKKKLLKESEQELAELENIPGTKAELILDLKAQIEELKRKIAKVPFIDTFDLRFNNFSRREVPSSQAVMFCLMDVSGSMDQATKDMAKRFYILLYLFLTRTYKNLEVVYIRHHTQAKEVDEHEFFYSQETGGTIVSSALKLMHEIQQARYPADEWNIYAAQASDGDNWADDSPTCKQLLEQKILPLVRYFSYIEITNRAHQTLWREYESLQQHYDNIAVQHIRQAEDIYPVFRELFKKQAVLEHHHHHH”, “not soluble”. Consider “TASIGAAAILGAPIMHDFCHISLSDLMTPWEVIEKRLRLAAEADFVICLYNPRSKGRSEHLSKAFKIMGEFKGGDTPVGVVKDVGREKEEKFVCTFENMDFEKVDMTTMVIIGNKSTY”, for which the “soluble on expression in E. coli” value was “not soluble”. “MASHIVGYPRMGPKRELKFALESFWDGKSTAEDLQKVSADLRSSIWKQMSAAGTKFIPSNTFAHYDQVLDTTAMLGAVPPRYGYTGGEIGLDVYFSMARGNASVPAMEMTKWFDTNYHYIVPELGPEVNFSYASHKAVNEYKEAKALGVDTVPVLVGPVSYLLLSKAAKGVDKSFELLSLLPKILPIYKEVITELKAAGATWIQLDEPVLVMDLEGQKLQAFTGAYAELESTLSGLNVLVETYFADIPAEAYKTLTSLKGVTAFGFDLVRGTKTLDLVKAGFPEGKYLFAGVVDGRNIWANDFAASLSTLQALEGIVGKDKLVVSTSCSLLHTAVDLINETKLDDEIKSWLAFAAQKVVEVNALAKALAGQKDEALFSANAAALASRRSSPRVTNEGVQKAAAALKGSDHRRATNVSARLDAQQKKLNLPILPTTTIGSFPQTVELRRVRREYKAKKVSEEDYVKAIKEEIKKVVDLQEELDIDVLVHGEPERNDMVEYFGEQLSGFAFTANGWVQSYGSRCVKPPVIYGDVSRPKAMTVFWSAMAQSMTSRPMKGMLTGPVTILNWSFVRNDQPRHETCYQIALAIKDEVEDLEKGGIGVIQIDEAALREGLPLRKSEHAFYLDWAVHSFRITNCGVQDSTQIHTHMCYSHFNDIIHSIIDMDADVITIENSRSDEKLLSVFREGVKYGAGIGPGVYDIHSPRIPSSEEIADRVNKMLAVLEQNILWVNPDCGLKTRKYTEVKPALKNMVDAAKLIRSQLASAK”: the “soluble on expression in E. coli” value was “soluble”.

Regarding “MGSDKIHHHHHHMDSYSDVKMGEYEPTWRSGMAKSITFIVTEDCQLRCGYCYIIGKNKFNRMSFTIARTAVDYILHNRALFWEDSVIWDFIGGEPLLEIELIDRICDYIKRRMYELDHPWFNSYRFSFSTNGLLYGTEKVQRFIRKNAHHLSISISIDGTRKKHDAQRVFPDGSGSYDAVVKNVPLWLKQFPNASTKATVAHDDLPLLKESVIHLWQLGLKNVTINLVNENIWEPGDDIIYETQLRELADYIVENDLYDTHNCSFFSKSIGKPLDCKTDNGNWCGSGKMLAIDGDGVFYPCVRFAPYSMRYKPARSIGNCFDGLDMNRVRPFLVLNRSMQSPEECIACDVASGCAWCQGNNYDLAATDTIYQRAVYTCAMHKARVRANRYFGEKLADRLGRERPVEAR”, the “soluble on expression in E. coli” value is “not soluble”. The same measure for “MSLINLVEKEWQEHQKIVQASEILKGQIAKVGELLCECLKKGGKILICGNGGSAADAQHFAAELSGRYKKERKALAGIALTTDTSALSAIGNDYGFEFVFSRQVEALGNEKDVLIGISTSGKSPNVLEALKKAKELNMLCLGLSGKGGGMMNKLCDHNLVVPSDDTARIQEMHILIIHTLCQIIDESF”: “soluble”; for “MCILFIALNAHPQYPLIICANRDEFHHRPTAPAQFWPPERNMLAGKDLQAGGTWFGVNTQGQLAGVTNLRVAQKNQEPMRSRGELVIQALNSGSLICPNWLVEHAQDYQPFNLVFGQGTNLYCFNSIRRETVKLTQGFHAISNGAMDDVWPKMAKGQRSLEALIQQSAQLEVESLIKLMQDDSQPQDNELPDTGVGLEWKRRLAAIYIRHPDYGTRSTSILLQNAQGEIQFTEVRYDGKGRRLGQQDFHFTLPPQLPPEPDCLVVFLEHHHHHH”: “not soluble”. As to “MSLKNIFSVLEERVERTPDDNLVEYKNAQGEWAAFTAAEFKNKVVALAKGLIARGVMPGDSVSIIAHTCWQWTALDVAIMSIGALTVPVYETNSPAQVKMIFNDANVKMAFAEDDFQRDKIESVRDQCPDLGDVYVIGLGAIDTIIEYGRAVSDAEFLEREQAVKGSDLATIVYTSGSTGTPKGVELTHANFVFITYSGVNSMPDIAMKPNRRLLLFLPLAHVFARYMQFFCFAGNVSLGLSSNLKTILADFKAFKPTFILAVPRIFEKIYNAASQKAGAGFKGRVFADATQTACDWSHAQQSGGSIPLALNAKHALYNKLVYSSIMEVFGGHVEYAVSGGAPLDSSIAHFFNGVGLSLLEGYGMTETCAPSSVNPTEGYKIGTIGLPLQGVTMGVDEEGELCIKSPAVCAGYHNNPDVTKQQIVDGWLHTGDLGSIDDDGFVSIVGRKKDLIITAGGKNVSPCEMEASIMTSPVVSQCVMIGDRKPFIAAIISLDLAETNLWLESKGAEQVADLDEASKNPIVRAEVERAVNKANELASRAESIRKFEIVPDEFTEENGLVTPSMKARRQAVVEHYRTLIDKEGHHHHHH”, the “soluble on expression in E. coli” value is reported as “not soluble”.

Consider “MSNNETMMFNVEKEKVNEARELLVSVYKALKEKGYNPINQIVGYILSGDPTYITNHLDARSSIRKVERDELLEEILRCYLEECIGKEGSV”, for which the “soluble on expression in E. coli” value is “soluble”. As for “MSQFISLTQYQLIEVQGADAEKYLQGQLTSDVVRLASGATTLTAHCDPKGKMNAIYRLFKVSSEQFFLLVKKDILPSGLDALKKYAVFSKVSFDLRDWQIIGVIGEKCGKITPNFSLEIDEKRSILLNETELPVNFNGDEKIWEVADIQAGLPNLSPQTQNEFIPQALNLQAIEQAISFTKGCYIGQETVARAKYRGANKRAMFIFKVQTQQEAEIGSEIEMQLEANWRKTGTITSAVNLDGVLWLQVVMNNDIDSEQQFRLLNSEILLERVQLPYSITE”, the entry is “not soluble”.

For “MNAVTEGRKVLLEIADLKVHFEIKDGKQWFWQPPKTLKAVDGVTLRLYEGETLGVVGESGCGKSTFARAIIGLVKATDGHVAWLGKELLGMKPDEWRAVRSDIQMIFQDPLASLNPRMTIGEIIAEPLRTYHPKMSRQEVRERVKAMMLKVGLLPNLINRYPHEFSGGQCQRIGIARALILEPKLIICDEPVSALDVSIQAQVVNLLQQLQREMGLSLIFIAHDLAVVKHISDRVLVMYLGHAVELGTYDEVYHNPLHPYTRALMSAVPIPDPDLEKNKTIQLLEGELPSPINPPSGCVFRTRCPIAGPECAKTRPVLEGSFRHAVSCLKVDPL”, the “soluble on expression in E. coli” value is “not soluble”. As for “MTLRAARPEFLDLFPAGAEARRLADGFTWTEGPVYVPARSAVIFSDVRQNRTWAWSDDGQLSPEMHPSHHQNGHCLNKQGHLIACSHGLRRLERQREPGGEWESIADSFEGKKLNSPNDVCLAPDGSLWFSDPTYGIDKPEEGYGGEMELPGRWVFRLAPDGTLSAPIRDRVKPNGLAFLPSGNLLVSDTGDNATHRYCLNARGETEYQGVHFTVEPGKTDGLRVDAGGLIWASAGDGVHVLTPDGDELGRVLTPQTTSNLCFGGPEGRTLYMTVSTEFWSIETNVRGLEHHHHHH”, the entry is “soluble”. The same measure for “MRRAAIFFFYDERGQVDDYIFYLLEKLRPFVETIIFVSNGEISQSSEASLRSTVDETIIRENTGFDVGAYRDGLEFIGYDKLGDYDEILLLNHTFYGPVFPFSEMFSEMERRACDFWGISDHKEVSPNPFTGAGVLPRHLNSHFIAVRKAMLESIAFRNYWERMPKITDYAESVLLHESRFTGFFENLGYKSETYLDSDKYNSAYPVMIDVDQIYNDRSPILKRRLFFNDPTFLDKNAVDLPRALRVLKETSDYDLNLIWRNVLRSSDLRTLNTNAALMSVLPDKRIKGDGAAADYGKIAVCAHIYYTDMLDEILGLTGNIPVPYDFIATTNTPEKKAEIETALANRPGVKNVIVRVVEQNRGRDMSSLFISLRDLLVDDRYDLVCRLHTKKSPQVQSSMGNLFKRHMVDNLLNSRGYVHNVLDMFHDNPSVGLAIPPIFHISYPTMGFSWFANKPKVEETARLLNINVKFDENTPVAAYGTMFWFRPRALRKMFEHKWKWEEFNAEPDHVDGGFAHALERLIAYAVQNAGYTTQHIMCAHQAEHNYTMLEFKLQKLASFMPSGDFPLQCHMVSEWRKGGYPLGSHVSATPAPMPTSVKHSLAELNLAVKSSLRFRAPILFRALRPIYRGTRAILKPNSRRSGGLEHHHHHH”: “soluble”; for “MGIDYNRWWHLKDETLGEELKGYIKMIEEDYLVYSGTTSQLHVSKLSNGSVNSIVNEILEQQGSWSIIYYNQKLKKLFIGRDVFGRQSLVFNFESMIFGCRTKPETSGKWIEIPFGQVTVFSLDSTDPVIYSYLDEYPENVLDGYFSGSDISRIVVNKKHGLLNVSRSTGGEIDSFNTKDLFQKVIDATKILLKNYHESHVAVCLSGGVDSTFVAHVVHSSVPENMQIDLINVAFGNSEKECEQAPDRKRARKALESFRTAYPTRQFRLILVNVDSQTLEVNRKESISDAAQPASSVLDDSLSCVLWFAVRAEGVDSENQQSVRSPATTCLLGSGADELLAGYARHRTRFEKEQIPENVAEECENELRRLGSRNGGRDARVAAQLGKTILSPLLEDTVVTWLNALPVDSKWDLSLPRGVGEKQLLRETVKMLGSPYDAPKQAMQFGSRMAKMSNAGDNSIKGSDKSPHLLKTDVN”: “not soluble”; for “GPLGSPEFPGMSKVFIATANAGKAHDADIFSVSACNSFTVSCSGDGYLKVWDNKLLDNENPKDKSYSHFVHKSGLHHVDVLQAIERDAFELCLVATTSFSGDLLFYRITREDETKKVIFEKLDLLDSDMKKHSFWALKWGASNDRLLSHRLVATDVKGTTYIWKFHPFADESNSLTLNWSPTLELQGTVESPMTPSQFATSVDISERGLIATGFNNGTVQISELSTLRPLYNFESQHSMINNSNSIRSVKFSPQGSLLAIAHDSNSFGCITLYETEFGERIGSLSVPTHSSQASLGEFAHSSWVMSLSFNDSGETLCSAGWDGKLRFWDVKTKERITTLNMHCDDIEIEEDILAVDEHGDSLAEPGVFDVKFLKKGWRSGMGADLNESLCCVCLDRSIRWFREAGGK”: “soluble”.

(Values after the DeepSol protein solubility set.)
